Measurements published in US20220396788, “RECOMBINANT TRANSPOSON ENDS” (THERMO FISHER SCIENTIFIC BALTICS, UAB, published 2022).
Positions count from the first letter of the chain named.

B1: Tn-SEQ2.1 (dsDNA)
DNA 1: GTTTTCGCTCTTCCGATCTAACGCTTTCGCGTTTTTCGTGCGCCGCTTCA
DNA 2: CTAGTGAAGCGGCGCACGAAAAACGCGAAAGCGTTAGATCGGAAGAGCGAAAAC
B2: GGGA barcode end (dsDNA)
DNA 1: GTTTTCGCATTTATCGTGAAACGCTTTCGCGTTTTTCGTGCGCCGGGACA
DNA 2: CTAGTGTCCCGGCGCACGAAAAACGCGAAAGCGTTTCACGATAAATGCGAAAAC
B3: TATA barcode end (dsDNA)
DNA 1: B2 DNA 1 with G45T, G46A, G47T
DNA 2: B2 DNA 2 with C8A, C9T, C10A
B4: TACG barcode end (dsDNA)
DNA 1: B2 DNA 1 with G45T, G46A, G47C, A48G
DNA 2: B2 DNA 2 with T7C, C8G, C9T, C10A
B5: CGCA barcode end (dsDNA)
DNA 1: B2 DNA 1 with G45C, G47C
DNA 2: B2 DNA 2 with C8G, C10G
B6: CTCT barcode end (dsDNA)
DNA 1: B2 DNA 1 with G45C, G46T, G47C, A48T
DNA 2: B2 DNA 2 with T7A, C8G, C9A, C10G
B7: GTAC barcode end (dsDNA)
DNA 1: B2 DNA 1 with G46T, G47A, A48C
DNA 2: B2 DNA 2 with T7G, C8T, C9A
B8: CATG barcode end (dsDNA)
DNA 1: B2 DNA 1 with G45C, G46A, G47T, A48G
DNA 2: B2 DNA 2 with T7C, C8A, C9T, C10G
B9: AGAG barcode end (dsDNA)
DNA 1: B2 DNA 1 with G45A, G47A, A48G
DNA 2: B2 DNA 2 with T7C, C8T, C10T
B10: GCGT barcode end (dsDNA)
DNA 1: B2 DNA 1 with G46C, A48T
DNA 2: B2 DNA 2 with T7A, C9G
B11: ACAT barcode end (dsDNA)
DNA 1: B2 DNA 1 with G45A, G46C, G47A, A48T
DNA 2: B2 DNA 2 with T7A, C8T, C9G, C10T
B12: ACGC barcode end (dsDNA)
DNA 1: B2 DNA 1 with G45A, G46C, A48C
DNA 2: B2 DNA 2 with T7G, C9G, C10T
B13: TTTC barcode end (dsDNA)
DNA 1: B2 DNA 1 with G45T, G46T, G47T, A48C
DNA 2: B2 DNA 2 with T7G, C8A, C9A, C10A
B14: Tn-SEQ2.2 (dsDNA)
DNA 1: GTTTTCGCATTTATCGTGAAACGCTTTCGCGTTTTTGCTCTTCCGATCTA
DNA 2: CTAGTAGATCGGAAGAGCAAAAACGCGAAAGCGTTTCACGATAAATGCGAAAAC
B15: Tn-SEQ1 (dsDNA)
DNA 1: GTTTTAGATGTGTATAAGAGACAGTTTCGCGTTTTTCGTGCGCCGCTTCA
DNA 2: CTAGTGAAGCGGCGCACGAAAAACGCGAAACTGTCTCTTATACACATCTAAAAC
B16: Mu-N0 transposon end (control) (dsDNA)
DNA 1: B2 DNA 1 with G46C, G47T, A48T
DNA 2: B2 DNA 2 with T7A, C8A, C9G

Biological target: T1, MuA transposase (UniProt P07636 P07636:1-663)
Experiment: EMSA; 8 substitutions (1 sensitive); active (FIG. 13B)
Conditions: chain copies: 4 (inferred); 5' overhang
Method: (§1) MuA transposomes were formed in 1× Complex Assembly Buffer with DMSO. Complex assembly reaction contained equimolar ratio of transposon end (9.3 μM) and MuA transposase (1.65 mg/mL). Components were well-mixed and incubated for one hour at 30° C. After incubation, the complex assembly mix was diluted with dilution buffer (88.0% glycerol, 314.5 mM NaCl, and 2.83 mM EDTA) to the final MuA concentration of 0.919 mg/mL. Complexed MuA transposome was stored at −70° C. for at least 16 hours before use.
(§2) Complex assembly efficiency was evaluated using an electrophoretic mobility shift assay (EMSA) on a 2% agarose gel containing 0.5 μg/mL Ethidium bromide and 87 μg/mL BSA and heparin. Activity was evaluated by fragmenting 100 ng Escherichia virus lambda genomic DNA with 1.5 μL MuA complex in 1× Fragmentation Reaction Buffer (Thermo Scientific™ MuSeek™ Library Preparation Kit, Illumina™ compatible, Cat. No. K1361). Fragmentation was carried out for 5 minutes at 30° C., then stopped by adding 4.4% SDS solution.

T1 sequence (P07636 whole entry, one chain of several): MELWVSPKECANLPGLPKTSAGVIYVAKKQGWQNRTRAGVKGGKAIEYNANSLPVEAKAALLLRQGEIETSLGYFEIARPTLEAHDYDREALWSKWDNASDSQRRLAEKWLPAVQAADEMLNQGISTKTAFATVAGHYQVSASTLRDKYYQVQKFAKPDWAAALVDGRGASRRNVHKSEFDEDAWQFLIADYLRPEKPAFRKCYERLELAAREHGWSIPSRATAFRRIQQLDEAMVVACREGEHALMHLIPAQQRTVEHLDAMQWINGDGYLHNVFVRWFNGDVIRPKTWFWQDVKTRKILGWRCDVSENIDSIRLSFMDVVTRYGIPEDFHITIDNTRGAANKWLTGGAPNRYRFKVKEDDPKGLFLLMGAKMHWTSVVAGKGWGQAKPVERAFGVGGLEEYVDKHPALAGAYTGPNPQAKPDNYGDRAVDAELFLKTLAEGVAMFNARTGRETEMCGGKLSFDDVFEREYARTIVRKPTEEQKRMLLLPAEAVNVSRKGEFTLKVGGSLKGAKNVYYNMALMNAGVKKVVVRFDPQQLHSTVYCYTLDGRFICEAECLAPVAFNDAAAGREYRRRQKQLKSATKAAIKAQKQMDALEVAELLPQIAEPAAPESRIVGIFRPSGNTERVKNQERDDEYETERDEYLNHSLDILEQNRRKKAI

Binding result, binds:
B1

Biological target: T1, MuA transposase
Experiment: EMSA; stable transposome; DMSO, 30 C 1 h; active (FIG. 9)
Conditions: chain copies: 4 (inferred); 5' overhang
Method: FIG. 8 provides EMSA analysis of MuA transposomes that all contain individual unique sequences. Analysis was carried out on 2% agarose gel containing 0.5 μg/mL Ethidium bromide and 87 μg/mL BSA and heparin. 5 μL of each loaded sample contains 2 μL of each transposome complex, 1 μL 6× TriTrack DNA Loading Dye (Thermo Scientific, Cat. No. R1161), and 2 μL of water. GeneRuler Low Range DNA Ladder (Thermo Scientific, Cat. No. SM1193) marker was used.
MuA transposomes were formed in 1× Complex Assembly Buffer with DMSO. The complex assembly reaction contained equimolar ratio of transposon end (9.3 μM) and MuA transposase (1.65 mg/mL). Components were well-mixed and placed for incubated for one hour at 30° C. After incubation, the complex assembly mix was diluted with dilution buffer (88.0% glycerol, 314.5 mM NaCl, and 2.83 mM EDTA) to the final MuA concentration of 0.919 mg/mL. Complexed MuA transposome was stored at −70° C. for at least 16 hours before use.

Binding result, binds:
B2
B3
B4
B5
B6
B7
B8
B9
B10
B11
B12
B13

Biological target: T1, MuA transposase
Experiment: EMSA; 8 substitutions (1 sensitive); active (FIG. 13C)
Conditions: chain copies: 4 (inferred); 5' overhang
Method: as §1, §2

Binding result, binds:
B14

Biological target: T1, MuA transposase
Experiment: EMSA; 13 substitutions (3 sensitive); active (FIG. 13A)
Conditions: chain copies: 4 (inferred); 5' overhang
Method: as §1, §2

Binding result, binds:
B15

Biological target: T1, MuA transposase
Experiment: EMSA; transposome assembly pH 6.0, 10% DMSO, 30 C 1 h; also fragments lambda DNA (FIG. 5A)
Conditions: chain copies: 4 (inferred); 5' overhang on non-transferred strand
Method: Analysis was carried out on 2% agarose gel containing 0.5 μg/mL Ethidium bromide and 87 μg/mL BSA and heparin. 5 μL of each loaded sample contains 2 μL of each transposome complex, 1 μL 6× TriTrack DNA Loading Dye (Thermo Scientific, Cat. No. R1161) and 2 μL of water. GeneRuler Low Range DNA Ladder (Thermo Scientific, Cat. No. SM1193) was used.
MuA transposomes were formed in 30 mM Tris-HCl, pH 6.0, 10% (v/v) glycerol, 0.005% (w/v) Triton X-100, 30 mM NaCl, 0.02 mM EDTA, and 10% DMSO. The complex assembly reaction contained equimolar ratio of transposon end (11.2 μM) and MuA transposase (1.65 mg/mL). Components were well mixed and incubated for one hour at 30° C. After incubation, the complex assembly mix was diluted with dilution buffer (88.0% glycerol, 314.5 mM NaCl, and 2.83 mM EDTA) to the final MuA concentration of 0.919 mg/mL. Complexed MuA transposome was stored at −70° C. for at least 16 hours before use.
Complex assembly efficiency was evaluated using an electrophoretic mobility shift assay (EMSA) on a 2% agarose gel containing 0.5 μg/mL ethidium bromide and 87 μg/mL BSA and heparin. Activity was evaluated by fragmenting 100 ng Escherichia virus lambda genomic DNA with 1.5 μL MuA complex in 30 μL of 1× Fragmentation Reaction Buffer (Thermo Scientific™ MuSeek™ Library Preparation Kit, Illumina™ compatible, Cat. No. K1361). […]

Binding result, binds:
B16
